This is an account of results in patent US7919236 (GIVAUDAN, dated 2011).

What all share (experiment): cell-based or functional assay
In test [1] the target is human TAS2R16 bitter receptor (human) (UniProt Q9NYV7).
Test [2] concerns the target T1, mouse T2R5 bitter receptor (mouse, UniProt Q9JKT4 1-300).
T1 sequence (looked up): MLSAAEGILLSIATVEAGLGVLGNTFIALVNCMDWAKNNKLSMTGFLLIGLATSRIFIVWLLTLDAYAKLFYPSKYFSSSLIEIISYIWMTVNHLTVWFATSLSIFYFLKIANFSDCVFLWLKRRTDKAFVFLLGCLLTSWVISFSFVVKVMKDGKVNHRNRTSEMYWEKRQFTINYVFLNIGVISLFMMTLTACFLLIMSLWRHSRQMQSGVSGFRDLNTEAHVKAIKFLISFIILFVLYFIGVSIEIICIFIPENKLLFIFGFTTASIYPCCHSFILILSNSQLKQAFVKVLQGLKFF

Test [3] deals with human TAS1R2/TAS1R3 sweet taste receptor heterodimer (human) (UniProt Q8TE23).
Sequence of human TAS1R2/TAS1R3 sweet taste receptor heterodimer (human) (Q8TE23 20-839, chain 1 of 2): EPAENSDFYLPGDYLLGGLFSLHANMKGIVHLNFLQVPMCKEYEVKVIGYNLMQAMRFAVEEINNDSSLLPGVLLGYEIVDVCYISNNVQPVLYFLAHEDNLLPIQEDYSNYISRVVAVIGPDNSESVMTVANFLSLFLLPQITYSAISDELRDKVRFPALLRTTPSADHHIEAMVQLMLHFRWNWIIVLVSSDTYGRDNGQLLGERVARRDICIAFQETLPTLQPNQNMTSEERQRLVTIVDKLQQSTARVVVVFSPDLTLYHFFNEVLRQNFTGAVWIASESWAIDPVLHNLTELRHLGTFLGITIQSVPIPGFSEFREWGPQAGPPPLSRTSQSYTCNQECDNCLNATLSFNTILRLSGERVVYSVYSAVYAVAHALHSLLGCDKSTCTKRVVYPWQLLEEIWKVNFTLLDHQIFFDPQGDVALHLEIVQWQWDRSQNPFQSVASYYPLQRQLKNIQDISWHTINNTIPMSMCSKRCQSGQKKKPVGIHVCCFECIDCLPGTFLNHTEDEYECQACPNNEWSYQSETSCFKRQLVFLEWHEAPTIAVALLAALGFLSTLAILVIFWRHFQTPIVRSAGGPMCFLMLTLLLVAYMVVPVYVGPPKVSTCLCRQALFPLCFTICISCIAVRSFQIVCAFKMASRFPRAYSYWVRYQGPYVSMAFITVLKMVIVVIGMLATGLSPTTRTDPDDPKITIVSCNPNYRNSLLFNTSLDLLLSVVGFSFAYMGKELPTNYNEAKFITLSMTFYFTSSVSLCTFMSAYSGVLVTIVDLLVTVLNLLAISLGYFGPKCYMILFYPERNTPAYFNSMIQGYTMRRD
Sequence of human TAS1R2/TAS1R3 sweet taste receptor heterodimer (human) (Q7RTX0 21-852, chain 2 of 2, further chain): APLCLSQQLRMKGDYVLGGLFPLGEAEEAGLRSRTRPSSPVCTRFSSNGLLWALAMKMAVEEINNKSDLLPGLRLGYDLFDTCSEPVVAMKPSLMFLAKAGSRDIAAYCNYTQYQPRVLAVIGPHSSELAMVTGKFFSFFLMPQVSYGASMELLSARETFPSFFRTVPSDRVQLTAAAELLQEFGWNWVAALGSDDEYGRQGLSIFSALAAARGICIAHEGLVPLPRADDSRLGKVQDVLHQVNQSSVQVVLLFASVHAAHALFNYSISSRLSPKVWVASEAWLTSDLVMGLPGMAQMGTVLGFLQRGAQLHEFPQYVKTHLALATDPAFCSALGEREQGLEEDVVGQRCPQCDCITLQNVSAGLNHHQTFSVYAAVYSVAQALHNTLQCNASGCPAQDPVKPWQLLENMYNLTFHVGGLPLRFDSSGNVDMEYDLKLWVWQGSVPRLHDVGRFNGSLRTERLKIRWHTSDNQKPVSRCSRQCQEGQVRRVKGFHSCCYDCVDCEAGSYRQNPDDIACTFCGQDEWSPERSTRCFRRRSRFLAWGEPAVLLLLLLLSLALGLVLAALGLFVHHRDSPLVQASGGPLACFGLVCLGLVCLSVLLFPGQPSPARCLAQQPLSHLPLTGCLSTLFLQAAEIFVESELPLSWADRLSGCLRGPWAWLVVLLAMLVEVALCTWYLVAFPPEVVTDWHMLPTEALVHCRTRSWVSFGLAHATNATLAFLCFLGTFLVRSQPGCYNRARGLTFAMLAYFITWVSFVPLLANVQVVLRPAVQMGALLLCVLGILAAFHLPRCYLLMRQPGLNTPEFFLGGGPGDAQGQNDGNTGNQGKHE
The target in test [4] is human TAS1R2/TAS1R3 sweet taste receptor heterodimer (human, UniProt Q8TE23 20-839; Q7RTX0 21-852).
Sequence of human TAS1R2/TAS1R3 sweet taste receptor heterodimer (Q8TE23 20-839, chain 1 of 2): as the sequence (Q8TE23 20-839, chain 1 of 2) above
Sequence of human TAS1R2/TAS1R3 sweet taste receptor heterodimer (Q7RTX0 21-852, chain 2 of 2): as the sequence (Q7RTX0 21-852, chain 2 of 2, further chain) above

Sequence of human TAS2R16 bitter receptor (human) (Q9NYV7 whole entry): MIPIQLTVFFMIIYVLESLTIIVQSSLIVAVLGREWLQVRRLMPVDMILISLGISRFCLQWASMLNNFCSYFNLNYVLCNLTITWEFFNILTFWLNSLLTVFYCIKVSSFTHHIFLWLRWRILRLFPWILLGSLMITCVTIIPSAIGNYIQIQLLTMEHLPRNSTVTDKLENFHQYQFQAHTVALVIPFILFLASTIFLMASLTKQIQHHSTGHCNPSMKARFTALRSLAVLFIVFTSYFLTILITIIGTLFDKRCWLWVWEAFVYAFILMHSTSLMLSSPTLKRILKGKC

In the case of “wild-type Gα16 (from UniProt P30679 1-374)”, the increase in mean Fluo-4 calcium fluorescence over baseline after 5 mM phenyl-β-D-glucopyranoside in test [1] amounted to 3490 RFU. For the same molecule, the increase in mean Fluo-4 calcium fluorescence over baseline after 10 µM cycloheximide in test [2] came to 2570 RFU.
Consider Gα15, for which, in test [3], the increase in mean Fluo-4 calcium fluorescence over baseline after 2.5 mM sucralose is 1300 RFU.

B1: Gα16-gustducin44 chimeric G-protein (other)
chain: MARSLTWRCCPWCLTEDEKAAARVDQEINRILLEQKKQDRGELKLLLLGPGESGKSTFIKQMRIIHGAGYSEEERKGFRPLVYQNIFVSMRAMIEAMERLQIPFSRPESKHHASLVMSQDPYKVTTFEKRYAAAMQWLWRDAGIRACYERRREFHLLDSAVYYLSHLERITEEGYVPTAQDVLRSRMPTTGINEYCFSVQKTNLRIVDVGGQKSERKKWIHCFENVIALIYLASLSEYDQCLEENNQENRMKESLALFGTILELPWFKSTSVILFLNKTDILEEKIPTSHLATYFPSFQGPKQDAEAAKRFILDMYTRMYTGCVDGPEGSNLKKEDKEIYSHMTCATDTQNVKFVFDAVTDIIIKENLKDCGLF
For B1, the “fluorescence signal after 10 uM cycloheximide, relative to wild-type Gα16” value in test [2] was determined as 5 fold vs wild-type Gα16. Moreover, the “fluorescence signal after 2.5 mM aspartame, acesulfame K or sucralose, relative to wild-type Gα16” value in test [4] was 2 fold vs wild-type Gα16.
